The source of these data is patent US20240288416.

For data set [1], the target named is green fluorescent protein (GFP) carrying an ssrA tag at the C-terminus.
A further data set has as its target T1, substrate 1 (S1).
T1 chain: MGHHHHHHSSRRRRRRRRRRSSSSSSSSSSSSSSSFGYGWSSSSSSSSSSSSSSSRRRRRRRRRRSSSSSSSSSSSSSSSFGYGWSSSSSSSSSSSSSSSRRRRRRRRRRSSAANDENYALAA

B1: Valosin-containing protein-like ATPase of Thermoplasma acidophilum (protein)
chain: MESNNGIILRVAEANSTDPGMSRVRLDESSRRLLDAEIGDVVEIEKVRKTVGRVYRARPEDENKGIVRIDSVMRNNCGASIGDKVKVRKVRTEIAKKVTLAPIIRKDQRLKFGEGIEEYVQRALIRRPMLEQDNISVPGLTLAGQTGLLFKVVKTLPSKVPVEIGEETKIEIREEPASEVLEEVSRISYEDIGGLSEQLGKIREMIELPLKHPELFERLGITPPKGVILYGPPGTGKTLIARAVANESGANFLSINGPEIMSKYYGQSEQKLREIFSKAEETAPSIIFIDEIDSIAPKREEVQGEVERRVVAQLLTLMDGMKERGHVIVIGATNRIDAIDPALRRPGRFDREIEIGVPDRNGRKEILMIHTRNMPLGMSEEEKNKFLEEMADYTYGFVGADLAALVRESAMNALRRYLPEIDLDKPIPTEILEKMVVTEDDFKNALKSIEPSSLREVMVEVPNVHWDDIGGLEDVKREIKETVELPLLKPDVFKRLGIRPSKGFLLYGPPGVGKTLLAKAVATESNANFISIKGPEVLSKWVGESEKAIREIFKKAKQVAPAIVFLDEIDSIAPRRGTTSDSGVTERIVNQLLTSLDGIEVMNGVVVIGATNRPDIMDPALLRAGRFDKLIYIPPPDKEARLSILKVHTKNMPLAPDVDLNDIAQRTEGYVGADLENLCREAGMNAYRENPDATSVSQKNFLDALKTIRPSVDEEVIKFYRTLSETMSKSVSERRKQLQDQGLYL
B1: in data set [1], the “average dwell time of GFP blockades at 6.0 mM ATP” value is “decreased 10-fold to 2.4±1.7 ms” and the “average dwell time of current blockades (inactive proteasome-nanopore, VAT, ATP 2.0 mM)” value is listed as “average dwell time is 22.1±20.2 ms”. For the same protein, in the data set with substrate 1 (S1), the “Ires % during VAT-assisted translocation through the inactive proteasome-nanopore (VAT 20.0 µM, ATP 2.0 mM)” value was “Ires %=83.81±0.11” and the “average dwell time of VAT-assisted translocation events (inactive proteasome-nanopore, ATP 2.0 mM)” value is “average dwell time is 5.8±3.9 ms”.
